In the Immune Epitope Database (IEDB):

Key:
Assay in all cases: IEDB peptide-MHC binding, purified MHC/competitive/radioactivity; filed as Kd, often an IC50 or EC50 that approximates it; ≥ and ≤ were set here for values at or beyond the usual limits of such assays
[1] = target: HLA-A*03:01
[2] = target: HLA-A*11:01
[3] = target: HLA-A*31:01
[4] = target: HLA-A*33:01
[5] = target: HLA-A*68:01
[6] = source organism: SARS coronavirus Tor2
[7] = source organism: Dengue virus 1 Brazil/97-11/1997
[8] = source organism: Dengue virus 3 Singapore/8120/1995
[9] = source organism: Dengue virus 2 Jamaica/1409/1983
[10] = source organism: Vaccinia virus WR
[11] = source organism: Dengue virus 4 Philippines/H241/1956
[12] = source organism: Dengue virus 3 Martinique/1243/1999

Sequence | Kd [1, 10] | Kd [2, 10] | Kd [3, 10] | Kd [4, 10] | Kd [5, 10] | also measured
AINSVPWSK |  |  |  |  |  | Kd [1, 6]: 0.013 µM; Kd [2, 6]: 0.00185 µM; Kd [3, 6]: 1.18 µM; Kd [4, 6]: 10.8 µM; Kd [5, 6]: 1.78 µM
ALFEPEREK |  |  |  |  |  | Kd [1, 7]: 0.0587 µM
ALILAYSNK |  |  |  |  |  | Kd [1, 6]: 0.0486 µM; Kd [2, 6]: 0.0196 µM; Kd [3, 6]: 3.8 µM; Kd [4, 6]: ≥ 43.3 µM; Kd [5, 6]: 4.52 µM
AMCLNTFVLK |  |  |  |  |  | Kd [1, 8]: 0.00937 µM; Kd [2, 8]: 0.0233 µM
AVAPSMTMR |  |  |  |  |  | Kd [2, 9]: 0.0328 µM
AVLSAATETY | 0.237 µM | 0.271 µM | 10.4 µM | 8.8 µM | 3.95 µM | 
CTDESRDRK | 5.96 µM | 0.219 µM | ≥ 54.7 µM | ≥ 77.7 µM | 0.169 µM | 
DIKLDAVLDR | ≥ 41.6 µM | ≥ 69.8 µM | 17.9 µM | 0.156 µM | 0.473 µM | 
DSLLITNTK | 2.71 µM | 0.661 µM | 18.6 µM | 0.00516 µM | 0.0371 µM | 
DVKASMLEKY | ≥ 24.7 µM | 4.94 µM | ≥ 36 µM | 16.7 µM | 0.558 µM | 
EDTMTYKCPR |  |  |  |  |  | Kd [4, 7]: 0.804 µM
EIIGGNDMY | 5.31 µM | ≥ 35.1 µM | ≥ 77.9 µM | ≥ 77.7 µM | 0.055 µM | 
ELALTDVEK | 1.56 µM | 0.513 µM | 9.81 µM | 5.81 µM | 0.00116 µM | 
ELVTRKCPQK | 7.42 µM | 0.513 µM | ≥ 70 µM | ≥ 32 µM | 1.4 µM | 
EMYPRHRYSK | 0.126 µM | 1.11 µM | 1.15 µM | 0.326 µM | 0.0278 µM | 
ETFKIDAVR | ≥ 28.7 µM | 2.73 µM | 0.107 µM | 0.0207 µM | 0.00161 µM | 
EVFGSTGDY | 3.14 µM | 0.0131 µM | ≥ 77.9 µM | ≥ 77.7 µM | 0.0142 µM | 
EVHWNYKER |  |  |  |  |  | Kd [5, 11]: 0.0152 µM
EYRLRGEAR |  |  |  |  |  | Kd [4, 9]: 0.0442 µM
FLKSGAVVK | 0.0135 µM | 0.347 µM | 4.77 µM | 19.5 µM | 0.0438 µM | 
FMEMFFDYNK | 0.552 µM | 0.088 µM | 0.72 µM | 2.24 µM | 0.231 µM | 
FSNTIQSYK | 0.0255 µM | 0.011 µM | 0.0777 µM | 2 µM | 0.00584 µM | 
FSTSAADIK | 2.2 µM | 0.222 µM | ≥ 35.8 µM | ≥ 28.9 µM | 0.00257 µM | 

Sequence | Kd [1, 10] | Kd [2, 10] | Kd [3, 10] | Kd [4, 10] | Kd [5, 10] | also measured
FVDINRNNK | 0.281 µM | 0.0508 µM | 2.3 µM | ≥ 46.8 µM | 0.0251 µM | 
GADPNACDK | ≥ 37.7 µM | 6.24 µM | 3.84 µM | 8.36 µM | 0.0906 µM | 
GAGLAFSLMK |  |  |  |  |  | Kd [2, 7]: 0.0935 µM
GFFLRKLTSR |  |  |  |  |  | Kd [3, 12]: 0.00135 µM
GISLGLILLK |  |  |  |  |  | Kd [1, 11]: 0.0165 µM; Kd [2, 11]: 0.0791 µM
GLLATNNVFR |  |  |  |  |  | Kd [1, 6]: 0.428 µM; Kd [2, 6]: 0.816 µM; Kd [3, 6]: 0.487 µM; Kd [4, 6]: 5.92 µM; Kd [5, 6]: 0.794 µM
GLLNGQGPMK |  |  |  |  |  | Kd [1, 12]: 0.00966 µM
GMSYSMCTGK |  |  |  |  |  | Kd [1, 9]: 0.0308 µM; Kd [2, 9]: 0.44 µM
GSFCTQLNR |  |  |  |  |  | Kd [1, 6]: 1.04 µM; Kd [2, 6]: 0.0761 µM; Kd [3, 6]: 0.0511 µM; Kd [4, 6]: ≥ 33.1 µM; Kd [5, 6]: 0.229 µM
HSGVDVFYK |  |  |  |  |  | Kd [2, 11]: 0.17 µM
IFSLKDTLKR |  |  |  |  |  | Kd [4, 12]: 0.32 µM
IFVDTMSIY | 18.3 µM | 0.921 µM | 6.76 µM | ≥ 29.1 µM | 0.882 µM | 
IIKSDHEFVK | 4.27 µM | 0.443 µM | 15.7 µM | ≥ 70 µM | 1.82 µM | 
IMDLHPGAGK |  |  |  |  |  | Kd [1, 9]: 0.0409 µM
ISFKSINKVY | 2.53 µM | 12.2 µM | 9.89 µM | ≥ 63.3 µM | 6.59 µM | 
ISKIYTLIYR | 0.691 µM | 0.226 µM | 0.000337 µM | 0.000458 µM | 0.00502 µM | 
ISQGAGWSLK |  |  |  |  |  | Kd [1, 9]: 0.199 µM; Kd [2, 9]: 0.214 µM
ISYDPKFEK |  |  |  |  |  | Kd [1, 11]: 0.114 µM; Kd [2, 11]: 0.101 µM
ITFLRPVLK | 0.00453 µM | 0.00645 µM | 0.00761 µM | 0.0845 µM | 0.00114 µM | 
ITLKIIETY | ≥ 78 µM | ≥ 77.9 µM | 0.751 µM | ≥ 77.7 µM | ≥ 77.7 µM | 
IVTSLAIKNY | 1.11 µM | 0.0517 µM | 8.82 µM | 5.68 µM | 1.41 µM | 
KAERVIDPR |  |  |  |  |  | Kd [3, 9]: 0.0566 µM
